Residue numbers refer to the chain shown, from its start.
Assays:
Details in all cases: tags: pcDNA3.1 expression
[1] = target: T1, variant nuclease K35G combination (P14R, D32R, I61R, E311R, K35G); test: cell_activity; PAM 5'-ATTG-3'
T1 chain: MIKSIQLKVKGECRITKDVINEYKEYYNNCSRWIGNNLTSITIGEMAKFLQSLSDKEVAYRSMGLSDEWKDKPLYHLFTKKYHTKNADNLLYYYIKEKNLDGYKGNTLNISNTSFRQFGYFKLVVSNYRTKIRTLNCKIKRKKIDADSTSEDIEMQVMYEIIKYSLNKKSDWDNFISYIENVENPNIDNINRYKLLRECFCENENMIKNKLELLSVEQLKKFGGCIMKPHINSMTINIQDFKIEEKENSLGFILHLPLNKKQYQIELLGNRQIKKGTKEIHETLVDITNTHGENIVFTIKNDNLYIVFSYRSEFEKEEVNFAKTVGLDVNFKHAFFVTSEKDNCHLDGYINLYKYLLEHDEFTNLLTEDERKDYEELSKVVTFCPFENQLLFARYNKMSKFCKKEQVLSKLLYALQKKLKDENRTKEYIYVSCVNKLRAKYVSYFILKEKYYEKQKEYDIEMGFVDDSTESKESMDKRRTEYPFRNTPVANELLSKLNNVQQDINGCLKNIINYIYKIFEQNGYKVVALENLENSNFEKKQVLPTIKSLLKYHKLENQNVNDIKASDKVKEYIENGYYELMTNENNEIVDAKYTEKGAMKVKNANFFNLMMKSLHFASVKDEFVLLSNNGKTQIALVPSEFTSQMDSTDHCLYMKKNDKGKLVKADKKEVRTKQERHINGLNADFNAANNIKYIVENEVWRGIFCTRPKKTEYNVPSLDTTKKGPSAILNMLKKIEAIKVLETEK

[2] = target: T2, variant nuclease E736G combination (P14R, D32R, I61R, E311R, E736G); test: cell_activity; PAM 5'-ATTG-3'
T2 chain: T1 chain with G35K, E736G

[3] = target: T3, variant nuclease SEQ ID NO: 53 (P14R, D32R, I61R, E311R, T338G, E736G); test: cell_activity; % indels; HEK293T; PAM 5'-TTTG-3'
T3 chain: T1 chain with G35K, T338G, E736G

[4] = target: T3, variant nuclease SEQ ID NO: 53 (P14R, …); test: cell_activity; % indels; HEK293T; PAM 5'-TTTA-3'

B1: EMX1 crRNA ; EMX1 target (ssRNA ; dsDNA)
RNA: CUUGUUGUAUAUGUCCUUUUAUAGGUAUUAAACAACCCGCCGCUUCCUGAGCCAUC
DNA 1: CCGCCGCTTCCTGAGCCATC
DNA 2: GATGGCTCAGGAAGCGGCGG
indel editing activity [1]: 6.93 fold of WT | indel editing activity [2]: 10.1 fold of WT

B2: AAVS1 crRNA ; AAVS1 target (ssRNA ; dsDNA)
RNA: CUUGUUGUAUAUGUCCUUUUAUAGGUAUUAAACAACUGAGAAUGGUGCGUCCUAGG
DNA 1: TGAGAATGGTGCGTCCTAGG
DNA 2: CCTAGGACGCACCATTCTCA
indel editing activity [3]: 6.11 fold of WT

B3: VEGFA crRNA ; VEGFA target (ssRNA ; dsDNA)
RNA: CUUGUUGUAUAUGUCCUUUUAUAGGUAUUAAACAACUCCAGACCACCAAUGGGCAC
DNA 1: TCCAGACCACCAATGGGCAC
DNA 2: GTGCCCATTGGTGGTCTGGA
indel editing activity [4]: 3.04 fold of WT
